Results published in patent publication US20120311746A1.

Target: receptors in brush border membrane vesicles produced from Spodoptera frugiperda (fall armyworm, FAW)
Assay: competitive displacement of 0.5 nM ^125I Cry1Be (competitor) from FAW BBMV

Question: With “Cry1Fa protein from Bacillus thuringiensis (from UniProt Q03746 28-605) (ligand)” as the substance, how does the concentration at which displacement of ^125I Cry1Be is effective read?
Answer: > 100 nM
